Measured values reported in patent publication US20250034260A1 (Sanofi, published 2025).

What was measured:
cyno FcRn (biotinylated) [1] = molecular target: T1, cyno FcRn (biotinylated) (cynomolgus, UniProt Q8SPV9 24-297; Q8SPW0 21-119, limits assumed, biotinylated (site not stated)); assay: SPR, Biacore 8K+, biotinylated cyno FcRn captured on SA chip, pH 6.0, bivalent analyte fit; pH 6.0
T1 construct: also called Cynomolgus FcRn; cynomolgus monkey FcRn
Protocol: (§1) The Nanobody® VHH-Fc protein constructs (FcRn antagonists) were characterized by affinity determination for human FcRn and cyno FcRn at pH 6.0 and pH 7.4 on the Biacore 8K+ instrument. For affinity measurements, ^{˜}200-400 of biotinylated human or cyno FcRn was captured on a Series S Sensor Chip SA. The Nanobody® VHH-Fc fusion proteins were injected at 9 different concentrations (between 0.5 and 1500 nM) and allowed to associate for 120 s at 30 μL/min and dissociate for 600 s.
(§2) The data could not be fitted with the 1:1 Langmuir dissociation model, and a Bivalent Analyte fitting model was used instead due to biphasic on-rate behaviour observed during analysis. The FcRn affinities obtained for TP061 were in line with the published data (see, e.g., Vaccaro, C., Zhou, J., Ober, R. et al., “Engineering the Fc region of immunoglobulin G to modulate in vivo antibody levels”, Nat. Biotechnol. 23, 1283-1288 (2005)).

[2] = molecular target: T2, human FcRn (biotinylated) (human, UniProt P61769 21-119, biotinylated (site not stated)); assay: SPR, Biacore 8K+, biotinylated human FcRn captured on SA chip, pH 6.0, bivalent analyte fit; pH 6.0
T2 construct: also called neonatal Fc receptor; FcRP
Protocol: as §1, §2

cyno FcRn (biotinylated) [3] = molecular target: T1, cyno FcRn (biotinylated); assay: SPR, Biacore 8K+, biotinylated cyno FcRn captured on SA chip, pH 6.0, bivalent analyte fit
Protocol: as §1, §2

cyno FcRn (biotinylated) [4] = molecular target: T1, cyno FcRn (biotinylated); assay: SPR, Biacore 8K+, biotinylated cyno FcRn captured on SA chip, pH 7.4, bivalent analyte fit
Protocol: as §1, §2

[5] = molecular target: T2, human FcRn (biotinylated); assay: SPR, Biacore 8K+, biotinylated human FcRn captured on SA chip, pH 6.0, bivalent analyte fit
Protocol: as §1, §2

[6] = molecular target: T2, human FcRn (biotinylated); assay: SPR, Biacore 8K+, biotinylated human FcRn captured on SA chip, pH 7.4, bivalent analyte fit
Protocol: as §1, §2

T1 sequence (Q8SPV9 24-297 limits assumed, chain 1 of 2): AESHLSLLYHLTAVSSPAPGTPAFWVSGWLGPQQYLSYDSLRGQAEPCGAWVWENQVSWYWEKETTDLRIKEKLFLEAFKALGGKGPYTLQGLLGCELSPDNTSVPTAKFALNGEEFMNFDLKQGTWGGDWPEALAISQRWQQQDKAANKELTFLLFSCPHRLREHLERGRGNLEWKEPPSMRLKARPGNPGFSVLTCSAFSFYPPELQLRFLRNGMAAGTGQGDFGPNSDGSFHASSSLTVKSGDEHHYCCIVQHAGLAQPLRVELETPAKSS
T1 sequence (Q8SPW0 21-119 limits assumed, chain 2 of 2): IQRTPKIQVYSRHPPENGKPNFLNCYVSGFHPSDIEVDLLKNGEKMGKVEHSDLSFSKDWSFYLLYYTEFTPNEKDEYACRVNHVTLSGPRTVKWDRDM
T2 sequence (chain, as listed by the source limits assumed, chain 1 of 2): as the sequence (Q8SPV9 24-297 limits assumed, chain 1 of 2) above, with D39N, Q44E, S99G, G189S, N190S, M217L, T269S counted along it
T2 sequence (P61769 21-119 limits assumed, chain 2 of 2): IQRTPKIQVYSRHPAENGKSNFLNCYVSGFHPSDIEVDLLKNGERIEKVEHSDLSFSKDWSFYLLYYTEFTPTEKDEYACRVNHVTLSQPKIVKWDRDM

B1: T-0263-00_TP061 (other)
chain: DKTHTCPPCPAPELLGGPSVFLFPPKPKDTLYITREPEVTCVVVDVSHEDPEVKFNWYVDGVEVHNAKTKPREEQYNSTYRVVSVLTVLHQDWLNGKEYKCKVSNKALPAPIEKTISKAKGQPREPQVYTLPPSRDELTKNQVSLTCLVKGFYPSDIAVEWESNGQPENNYKTTPPVLDSDGSFFLYSKLTVDKSRWQQGNVFSCSVMHEALKFHYTQKSLSLSPGK
notes: Symmetrical (homodimeric) Fc-only control made without knob-in-hole; also called control FcRn antagonist; IgG1 Fc YTE-KF Fc domain without Nanobody VHH
- Kd (cyno FcRn (biotinylated) [1]): 27.5 nM
- Kd [2]: 17.2 nM

B2: T-0263-00_TP069 (Fc fusion)
chain 1: DKTHTCPPCPAPELLGGPSVFLFPPKPKDTLYITREPEVTCVVVDVSHEDPEVKFNWYVDGVEVHNAKTKPREEQYNSTYRVVSVLTVLHQDWLNGKEYKCKVSNKALPAPIEKTISKAKGQPREPQVYTLPPCRDELTKNQVSLWCLVKGFYPSDIAVEWESNGQPENNYKTTPPVLDSDGSFFLYSKLTVDKSRWQQGNVFSCSVMHEALKFHYTQKSLSLSPGGGGGSGGGGSGGGGSGGGGSGGGGSGGGGSGGGGSEVQLVESGGGVVQPGGSLRLSCAASGFTFSSYAMYWVRQAPGKGLEWVSAISSGGGSTDYADSVKGRFTISRDNSKNTLYLQMNSLRPEDTALYYCAADTLYTSLTSYSYWGQGTLVTVSS
chain 2: DKTHTCPPCPAPELLGGPSVFLFPPKPKDTLYITREPEVTCVVVDVSHEDPEVKFNWYVDGVEVHNAKTKPREEQYNSTYRVVSVLTVLHQDWLNGKEYKCKVSNKALPAPIEKTISKAKGQPREPQVCTLPPSRDELTKNQVSLSCAVKGFYPSDIAVEWESNGQPENNYKTTPPVLDSDGSFFLVSKLTVDKSRWQQGNVFSCSVMHEALKFHYTQKSLSLSPG
notes: also called C-terminal fusion construct; human IgG1 Fc YTE-KF (knob)-35GS-T0263018B11(W100cS) + Fc YTE-KF (hole)
- Kd (cyno FcRn (biotinylated) [3]): 0.683 nM
- Kd (cyno FcRn (biotinylated) [4]): 12.5 nM
- Kd [5]: 0.873 nM
- Kd [6]: 14 nM

B3: T-0263-00_TP067 (Fc fusion)
chain 1: DVQLVESGGGVVQPGGSLRLSCAASGFTFSSYAMYWVRQAPGKGLEWVSAISSGGGSTDYADSVKGRFTISRDNSKNTLYLQMNSLRPEDTALYYCAADTLYTSLTSYSYWGQGTLVTVSSDKTHTCPPCPAPELLGGPSVFLFPPKPKDTLYITREPEVTCVVVDVSHEDPEVKFNWYVDGVEVHNAKTKPREEQYNSTYRVVSVLTVLHQDWLNGKEYKCKVSNKALPAPIEKTISKAKGQPREPQVYTLPPCRDELTKNQVSLWCLVKGFYPSDIAVEWESNGQPENNYKTTPPVLDSDGSFFLYSKLTVDKSRWQQGNVFSCSVMHEALKFHYTQKSLSLSPG
chain 2: DKTHTCPPCPAPELLGGPSVFLFPPKPKDTLYITREPEVTCVVVDVSHEDPEVKFNWYVDGVEVHNAKTKPREEQYNSTYRVVSVLTVLHQDWLNGKEYKCKVSNKALPAPIEKTISKAKGQPREPQVCTLPPSRDELTKNQVSLSCAVKGFYPSDIAVEWESNGQPENNYKTTPPVLDSDGSFFLVSKLTVDKSRWQQGNVFSCSVMHEALKFHYTQKSLSLSPG
notes: also called N-terminal fusion construct; T0263018B11(E1D,W100cS)-human IgG1 Fc YTE-KF (knob) + Fc YTE-KF (hole)
- Kd (cyno FcRn (biotinylated) [3]): 0.541 nM
- Kd (cyno FcRn (biotinylated) [4]): 11.2 nM
- Kd [5]: 0.692 nM
- Kd [6]: 10.3 nM
